We go through 13 substances from US20210024620A1.

The target in assay [1] is biotinylated cynomolgus FcRn (cynomolgus) (UniProt Q8SPV9). In words: Biacore, biotin-captured cFcRn, pH 7.4. Background: SPR reads the build-up and loss of mass on a sensor chip optically.
For assay [2] the target is unchanged. The assay can be described thus: Biacore, biotin-captured cFcRn, pH 6.0.
Assay [3] shares this target. The assay can be described thus: Biacore, biotin-captured cFcRn, pH 8.0.
Assay [4] has as its target Human CD16a (FcγRIIIa residues 17-208 with C-terminal HPC4 tag and valine at position 158) (human) (UniProt P08637). The assay can be described thus: Biacore SPR, HPC4-tagged FcγRIIIa-V158 captured by anti-HPC4, pH 7.4.
For assay [5], the target named is biotinylated cynomolgus FcRn (cynomolgus) (UniProt Q8SPV9). The assay can be described thus: Biacore, biotin-captured cFcRn, pH 8.0, 1000 nM antibody.
The target of assay [6] is biotinylated human FcRn (human) (UniProt P55899). The assay can be described thus: Biacore, biotin-captured hFcRn, pH 8.0, 1000 nM antibody.
Chain of biotinylated human FcRn (human) (P55899 24-297 limits assumed, chain 1 of 2): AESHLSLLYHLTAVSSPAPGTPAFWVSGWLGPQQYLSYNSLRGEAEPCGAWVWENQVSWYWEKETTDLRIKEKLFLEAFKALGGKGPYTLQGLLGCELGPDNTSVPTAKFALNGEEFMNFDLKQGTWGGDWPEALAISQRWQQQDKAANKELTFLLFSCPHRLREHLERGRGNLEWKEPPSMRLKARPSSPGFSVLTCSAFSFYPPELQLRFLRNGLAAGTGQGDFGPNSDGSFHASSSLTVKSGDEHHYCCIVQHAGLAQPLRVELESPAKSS
Chain of biotinylated human FcRn (human) (P61769 21-119 limits assumed, chain 2 of 2, further chain): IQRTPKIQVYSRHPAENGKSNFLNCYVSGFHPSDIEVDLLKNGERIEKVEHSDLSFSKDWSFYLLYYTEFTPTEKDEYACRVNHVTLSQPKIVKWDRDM
Assay [7] shares this target. In words: Biacore, biotin-captured hFcRn, pH 8.0.
In assay [8] the target is biotinylated human FcRn (p51 subunit residues 24-297 with C-terminal Avi-tag; beta2-microglobulin residues 21-119) (human) (UniProt P55899). In words: Biacore SPR, pH 6.0.
Chain of biotinylated human FcRn (p51 subunit residues 24-297 with C-terminal Avi-tag; beta2-microglobulin residues 21-119) (human) (P55899 24-297 limits assumed, chain 1 of 2): as the sequence (P55899 24-297 limits assumed, chain 1 of 2) above
Chain of biotinylated human FcRn (p51 subunit residues 24-297 with C-terminal Avi-tag; beta2-microglobulin residues 21-119) (human) (P61769 21-119 limits assumed, chain 2 of 2, further chain): as the sequence (P61769 21-119 limits assumed, chain 2 of 2, further chain) above
For assay [9], the target named is biotinylated cynomolgus FcRn (cynomolgus) (UniProt Q8SPV9). The assay can be described thus: Biacore, biotin-captured cFcRn, pH 7.4, 1000 nM antibody.
Assay [10] addresses biotinylated human FcRn (p51 subunit residues 24-297 with C-terminal Avi-tag; beta2-microglobulin residues 21-119) (human) (UniProt P55899). In words: Biacore SPR, pH 7.4, steady state.
Assay [11] concerns the target biotinylated human FcRn (human) (UniProt P55899). The assay can be described thus: Biacore, biotin-captured hFcRn, pH 7.4, 1000 nM antibody.
Assay [12] has the same target. In words: Biacore, biotin-captured hFcRn, pH 7.4.
Assay [13] deals with biotinylated cynomolgus FcRn (cynomolgus) (UniProt Q8SPV9). The assay can be described thus: Biacore, biotin-captured cFcRn, pH 9.0, 1000 nM antibody.
The target of assay [14] is biotinylated human FcRn (human) (UniProt P55899). The assay can be described thus: Biacore, biotin-captured hFcRn, pH 6.0.
Assay [15] shares this target. The assay can be described thus: Biacore, biotin-captured hFcRn, pH 9.0, 1000 nM antibody.
For assay [16] the target is unchanged. The assay can be described thus: Biacore, pH 6.0, apparent KD.
Assay [17] has as its target rat FcRn (rat) (UniProt P13599). In words: Biacore, pH 6.0, apparent KD.
Assay [18] concerns the target FcRn immobilised on the FcRn affinity column (biotinylated cynoFcRn in one experiment, biotinylated hFcRn in another). The assay can be described thus: FcRn affinity chromatography, linear pH gradient; species of the immobilised FcRn not given.
In assay [19] the target is biotinylated human FcRn (human) (UniProt P55899). In words: Biacore, pH 6.0.
Assay [20] addresses rat FcRn (rat) (UniProt P13599). The assay can be described thus: Biacore, pH 6.0.
The target in assay [21] is biotinylated human FcRn (human) (UniProt P55899). In words: Biacore, pH 7.4, steady state response.
For assay [22], the target named is rat FcRn (rat) (UniProt P13599). The assay can be described thus: Biacore, pH 7.4, steady state response.
Chain of rat FcRn (rat) (P13599 23-298 limits assumed, chain 1 of 2): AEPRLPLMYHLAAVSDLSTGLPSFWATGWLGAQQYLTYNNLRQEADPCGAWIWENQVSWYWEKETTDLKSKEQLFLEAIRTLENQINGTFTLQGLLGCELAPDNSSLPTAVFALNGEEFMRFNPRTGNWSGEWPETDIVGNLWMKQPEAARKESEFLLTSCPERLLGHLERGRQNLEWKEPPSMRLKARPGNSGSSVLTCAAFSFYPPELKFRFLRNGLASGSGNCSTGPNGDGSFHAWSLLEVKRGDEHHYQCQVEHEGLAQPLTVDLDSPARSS
Chain of rat FcRn (rat) (P07151 21-119 limits assumed, chain 2 of 2, further chain): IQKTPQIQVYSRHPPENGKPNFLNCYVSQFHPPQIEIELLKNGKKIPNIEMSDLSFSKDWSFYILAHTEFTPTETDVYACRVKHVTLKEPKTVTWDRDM
Assay [23] deals with biotinylated human FcRn (p51 subunit residues 24-297 with C-terminal Avi-tag; beta2-microglobulin residues 21-119) (human) (UniProt P55899). In words: Biacore; affinity at pH 6.0 (M^-1) over steady state RU at pH 7.4.
The target is the same in assay [24]. In words: Biacore; inverse ratio (RU at pH 7.4 over affinity at pH 6.0).
Assay [25] concerns the target biotinylated human FcRn (human) (UniProt P55899). In words: Biacore SPR, pH 7.4.
The target in assay [26] is rat FcRn (rat) (UniProt P13599). The assay can be described thus: Biacore SPR, pH 7.4.
For assay [27], the target named is biotinylated human FcRn (human) (UniProt P55899). In words: Biacore SPR, pH 6.0.
Assay [28] addresses rat FcRn (rat) (UniProt P13599). In words: Biacore SPR, pH 6.0.
The target of assay [29] is Human CD16a (FcγRIIIa V158) with C-terminal HPC4 tag (human) (UniProt P08637). The assay can be described thus: Biacore, FcγRIIIa V158 captured, steady-state fit, apparent KD.
Chain of Human CD16a (FcγRIIIa V158) with C-terminal HPC4 tag (human) (P08637 17-208 F176V): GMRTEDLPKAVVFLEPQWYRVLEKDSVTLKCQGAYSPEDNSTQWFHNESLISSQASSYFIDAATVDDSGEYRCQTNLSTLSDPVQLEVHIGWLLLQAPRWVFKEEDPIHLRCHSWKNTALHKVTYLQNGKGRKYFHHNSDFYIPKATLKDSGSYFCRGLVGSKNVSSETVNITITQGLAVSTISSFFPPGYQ

Chain of Human CD16a (FcγRIIIa residues 17-208 with C-terminal HPC4 tag and valine at position 158) (human) (P08637 17-208 F176V): as above

In the case of “mAb1 YDWF (M252Y/T256D/T307W/N434F) (antibody)”, the Kd worked out at 115 nM in assay [1]; 8.6 nM in assay [2]; 680 nM in assay [3]; 1300 nM in assay [7]; 194 nM in assay [12]. Moreover, the FcγRIIIa Binding Steady State RU in assay [4] worked out at 128 RU. Moreover, the Steady State RU in assay [5] stood at 313 RU; in [6], 235 RU; in [9], 173 RU; in [11] it was 124 RU; in assay [13] it was 4.6 RU. In assay [8], the Ka was 1.66e+08 M⁻¹. For the same substance, the Steady State Binding, pH 7.4 (RU) in [10] came to 71.8 RU.

With “mAb1 YDQY (M252Y/T256D/T307Q/N434Y) (antibody)”, the Kd in [1] stood at 56 nM; in [14] it was 2.7 nM; in assay [2], 1.9 nM; in assay [3], 490 nM; in assay [7], 670 nM; in assay [12], 50 nM. Moreover, the Steady State RU in assay [5] turned out to be 325 RU; in assay [6], 264 RU; in [9], 196 RU; in assay [11], 157 RU; in assay [13], 6.3 RU; in assay [15], 4.6 RU. In assay [8], this substance displayed a Ka of 2.35e+08 M⁻¹. This substance also returned a Steady State Binding, pH 7.4 (RU) in assay [10] of 80.2 RU.

On to “YTEKF hIgG1 benchmark (M252Y/S254T/T256E/H433K/N434F) (antibody)”, for which the Kd in [1] came to 76 nM; in assay [14], 15 nM; in [2], 8.3 nM; in assay [3], 3200 nM; in assay [7], 2400 nM; in assay [12] it was 74 nM. For the same substance, the Steady State RU in assay [5] was determined as 268 RU; in assay [9], 152 RU; in [11], 132 RU; in [13], 3.8 RU; in assay [15], 2.7 RU.

As for “mAb1 YTWY (M252Y/T307W/N434Y) (antibody)”, the Kd in assay [1] came to 70 nM; in [2] it was 7.7 nM; in [3] it was 1100 nM; in assay [7] it was 2500 nM; in assay [12], 65 nM. The Steady State RU in [5] was 292 RU; in assay [6] it was 232 RU; in [9], 159 RU; in assay [11], 133 RU; in assay [13] it was 6.5 RU; in assay [15], 4 RU. Further, the Ka in assay [8] was found to be 1.06e+08 M⁻¹. This substance yielded a Steady State Binding, pH 7.4 (RU) in assay [10] of 75.1 RU.

“YTEKF benchmark (M252Y/S254T/T256E/H433K/N434F) hIgG1 (antibody)” displayed a FcγRIIIa Binding Steady State RU in assay [4] of 207 RU.

What is called koff is the first-order rate constant of dissociation. Broadly, the kon is the second-order rate constant of association. A higher kon goes with fast association. Turning to mAb1 YETN (M252Y/T256E) (antibody), the Kd in [16] came out at 128 nM; with rat FcRn (rat) [17], 8.4 nM; in assay [27], 128 nM; with rat FcRn (rat) [28], 8.43 nM; in [29], 878 nM. This substance also yielded a FcRn affinity column elution pH in assay [18] of 7.83 pH. The off-rate (koff) in assay [19] came to 0.076 s⁻¹; in the assay with rat FcRn (rat) [20] it was 0.0027 s⁻¹; in assay [27] it was 0.0757 s⁻¹; with rat FcRn (rat) [28], 0.00273 s⁻¹. The on-rate constant (kon) worked out at 590000 M⁻¹ s⁻¹ in [19], 32000 M⁻¹ s⁻¹ in the assay with rat FcRn (rat) [20], 592000 M⁻¹ s⁻¹ in assay [27] and 324000 M⁻¹ s⁻¹ with rat FcRn (rat) [28]. In addition, the Steady State RU in assay [21] was 9.8 RU; in the assay with rat FcRn (rat) [22], 55.1 RU; in [25], 9.8 RU; with rat FcRn (rat) [26] it was 55.1 RU. In addition, the Ratio (pH 6.0/pH 7.4) in assay [23] worked out at 797000; in assay [24], 1.25e-06. Also, in assay [8], the Ka came out at 7.81e+06 M⁻¹. The same substance showed a Steady State Binding, pH 7.4 (RU) in assay [10] of 9.8 RU.

In assay [14], “mAb1 YEQF (M252Y/T256E/T307Q/N434F) (antibody)” returned a Kd of 15 nM, a koff of 0.0121 s⁻¹ and a kon of 790000 M⁻¹ s⁻¹. In assay [4], the FcγRIIIa Binding Steady State RU is 226 RU.

On to “mAb1 YEQY (M252Y/T256E/T307Q/N434Y) (antibody)”, for which the Kd in assay [1] was 80 nM; in [14], 4.8 nM; in assay [2], 3.7 nM; in [3], 2500 nM; in assay [7], 2100 nM; in assay [12], 79 nM. Moreover, the Steady State RU in assay [5] was determined as 264 RU; in [6] it was 213 RU; in assay [9] it was 157 RU; in [11] it was 136 RU; in assay [13], 3.4 RU; in [15], 2.4 RU.

For the substance “mAb1 YDQF (M252Y/T256D/T307Q/N434F) (antibody)”, the Kd in assay [1] was 95 nM; in [2] it was 4.3 nM; in assay [3] it was 2900 nM; in [7], 2700 nM; in [12] it was 82 nM. Further, the Steady State RU in [5] amounted to 245 RU; in assay [6], 196 RU; in [9] it was 176 RU; in [11], 140 RU; in [13], 2.2 RU; in assay [15], 1.4 RU. This substance also had a Ka in assay [8] of 1.11e+08 M⁻¹. This substance registered a Steady State Binding, pH 7.4 (RU) in [10] of 68.6 RU.

As to mAb1 YTWN (M252Y/T307W) (antibody), the Kd in [16] came to 118 nM; in the assay with rat FcRn (rat) [17], 5.2 nM; in assay [27], 118 nM; in the assay with rat FcRn (rat) [28], 5.21 nM; in assay [29] it was 896 nM. In addition, the FcRn affinity column elution pH in assay [18] is 8.14 pH. For the same substance, the koff in assay [19] came to 0.057 s⁻¹; with rat FcRn (rat) [20], 0.0011 s⁻¹; in assay [27] it was 0.057 s⁻¹; with rat FcRn (rat) [28] it was 0.00109 s⁻¹. Further, the kon in [19] stood at 480000 M⁻¹ s⁻¹; with rat FcRn (rat) [20] it was 21000 M⁻¹ s⁻¹; in [27], 483000 M⁻¹ s⁻¹; with rat FcRn (rat) [28], 208000 M⁻¹ s⁻¹. Further, the Steady State RU in assay [21] is 15.9 RU; in the assay with rat FcRn (rat) [22], 66.1 RU; in assay [25] it was 15.9 RU; with rat FcRn (rat) [26], 66.1 RU. The Ratio (pH 6.0/pH 7.4) in assay [23] came to 533000. For the same substance, in assay [8], the Ka was found to be 8.47e+06 M⁻¹. The Steady State Binding, pH 7.4 (RU) in assay [10] was found to be 15.9 RU.

In [14], “mAb1 YEWF (M252Y/T256E/T307W/N434F) (antibody)” yielded a Kd of 13 nM, a koff of 0.0103 s⁻¹ and a kon of 810000 M⁻¹ s⁻¹. This substance also had a FcγRIIIa Binding Steady State RU in assay [4] of 163 RU.

Consider “mAb1 YEQN (M252Y/T256E/T307Q) (antibody)”, for which the Kd in assay [16] was 218 nM; with rat FcRn (rat) [17], 7.8 nM; in assay [29], 1620 nM. Moreover, the FcRn affinity column elution pH in assay [18] was found to be 8.12 pH. For the same substance, the results for the off-rate (koff) (in [19]; with rat FcRn (rat) [20]) were 0.041 s⁻¹ and 0.0004 s⁻¹, respectively. Further, the figures for the kon (in [19]; with rat FcRn (rat) [20]) were 190000 M⁻¹ s⁻¹ and 5000 M⁻¹ s⁻¹, respectively. Also, the Steady State RU in assay [21] is 15.2 RU; with rat FcRn (rat) [22], 61.8 RU. Further, in [23], the Ratio (pH 6.0/pH 7.4) amounted to 302000. In [24], the Ratio is 3.31e-06. In addition, in [8], the Ka is 4.59e+06 M⁻¹. Further, in assay [10], the Steady State Binding, pH 7.4 (RU) was 15.2 RU.

On to “mAb1 YDTY (M252Y/T256D/N434Y) (antibody)”, for which the Kd in assay [1] was 64 nM; in assay [14], 15 nM; in assay [2] it was 13 nM; in assay [3] it was 2500 nM; in assay [7] it was 8700 nM; in assay [12] it was 76 nM. Also, the Steady State RU turned out to be 183 RU in assay [5]; 141 RU in [6]; 134 RU in assay [9]; 120 RU in [11]; 1.9 RU in assay [13]; 0.6 RU in assay [15]. Moreover, in [8], the Ka came to 9.01e+07 M⁻¹. This substance had a Steady State Binding, pH 7.4 (RU) in [10] of 65.4 RU.
